{"source": "paper PMC9302186", "about": "“Defining variant-resistant epitopes targeted by SARS-CoV-2 antibodies: A global consortium study” (Science (New York, N.y.), 2021)", "binders": {"B1": {"name": "CoVIC-259 (antibody, V domains shown)", "VH": "EVQLVESGGGVVQPGRSLRLSCAASGFTFSSYAMHWVRQAPGKGLEWVAVLSYDGSNKYNADSVKGRFTISRDNSKNTLYLQMNSLRVEDTAMYYCARDGVSVTMVRGVIGPLCDYWGQGTLVTVSS", "VL": "not shown", "notes": "also called RBD-1 community representative"}}, "target": "T1, SARS-CoV-2 spike trimer (as imaged by NS-EM) (SARS-CoV-2, ancestral (Wuhan-Hu-1, …, UniProt P0DTC2))", "T1 construct": "also called spike trimers; spike protein", "experiment": "negative-stain electron microscopy", "conditions": "both partners purified"}
{"binder": "B1", "values": [{"measurement": "binding result", "value": "binds"}]}
